The series deals with Escherichia coli TOP10. As to the kind of experiment: shrunken log2 fold change of peptide-encoding DNA abundance (4.5 h post-induction vs induction); higher = less antimicrobial activity (less host growth inhibition). To be noted: time post-induction: 4.5 h; library: site-saturation at positions 5, 18, 19, 20.
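Further: peptides expressed intracellularly from a pBAD plasmid library in pooled LB shake-flask culture, induced with 0.3% L-arabinose, DNA abundance read by NGS, three biological replicates, DESeq2 with apeglm shrinkage.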

As to RRIRSRPPRLPRPRPRPKVKPRP, the “shrunken log2 fold change” value came to 0.0666. To RRIRWRPPRLPRPRPRPLMEPRP belongs 0.835; to RRIRERPPRLPRPRPRPNGVPRP, -0.2; to RRIRQRPPRLPRPRPRPEETPRP, -0.0125. To RRIRERPPRLPRPRPRPHFSPRP belongs 0.061. To RRIRERPPRLPRPRPRPNLQPRP belongs -0.208; to RRIRYRPPRLPRPRPRPVGQPRP, -0.106. RRIRERPPRLPRPRPRPGMKPRP: the “shrunken log2 fold change” value is 0.0657. As to RRIRNRPPRLPRPRPRPHRKPRP, the “shrunken log2 fold change” value came to 0.0299. The result for RRIRYRPPRLPRPRPRPYIQPRP reads -0.294. To RRIRSRPPRLPRPRPRPEFWPRP belongs 0.281; to RRIRNRPPRLPRPRPRPELYPRP, 0.23. The result for RRIRARPPRLPRPRPRPGMSPRP reads 0.649. For the sequence RRIRTRPPRLPRPRPRPSCYPRP, the “shrunken log2 fold change” value is -0.654.

For the sequence RRIRRRPPRLPRPRPRPAKWPRP, the “shrunken log2 fold change” value was 0.123. With RRIRWRPPRLPRPRPRPTIHPRP, the “shrunken log2 fold change” value was found to be 0.13. For RRIRIRPPRLPRPRPRPRQVPRP, the “shrunken log2 fold change” value worked out at 0.0368. The result for RRIRDRPPRLPRPRPRPRNEPRP reads 0.00109; that for RRIRDRPPRLPRPRPRPLDVPRP, -0.0992. For the sequence RRIRIRPPRLPRPRPRPNFKPRP, the “shrunken log2 fold change” value was -0.144. RRIRLRPPRLPRPRPRPCQHPRP: the “shrunken log2 fold change” value is -0.382. To RRIRNRPPRLPRPRPRPVQPPRP belongs 0.0494; to RRIRPRPPRLPRPRPRPPLVPRP, 0.389. Regarding RRIRMRPPRLPRPRPRPKKVPRP, the “shrunken log2 fold change” value was found to be 0.561. To RRIRRRPPRLPRPRPRPGMVPRP belongs 0.308; to RRIRKRPPRLPRPRPRPIRTPRP, 0.416; to RRIRWRPPRLPRPRPRPNWAPRP, -0.0835. The result for RRIRSRPPRLPRPRPRPVNIPRP reads -0.261; that for RRIRDRPPRLPRPRPRPQVTPRP, 0.0425.

For the sequence RRIRNRPPRLPRPRPRPYPHPRP, the “shrunken log2 fold change” value was -0.0269. To RRIRERPPRLPRPRPRPTFCPRP belongs -0.0701; to RRIRARPPRLPRPRPRPVDIPRP, 0.135; to RRIRFRPPRLPRPRPRPGHVPRP, -0.447. To RRIRSRPPRLPRPRPRPFDEPRP belongs 0.0719; to RRIRTRPPRLPRPRPRPKRYPRP, -0.154; to RRIRNRPPRLPRPRPRPKSMPRP, 0.0478. The result for RRIRERPPRLPRPRPRPYKFPRP reads -0.835; that for RRIRARPPRLPRPRPRPDGSPRP, 0.0886; that for RRIRDRPPRLPRPRPRPQDDPRP, 0.0352.

Turning to RRIRNRPPRLPRPRPRPYNCPRP, the “shrunken log2 fold change” value is -0.385. To RRIRLRPPRLPRPRPRPEKFPRP belongs -0.175; to RRIRMRPPRLPRPRPRPYAKPRP, 0.00938.

Take RRIRERPPRLPRPRPRPNDRPRP: the “shrunken log2 fold change” value was -0.426.

For the sequence RRIRVRPPRLPRPRPRPGYHPRP, the “shrunken log2 fold change” value is -0.364. For the sequence RRIRPRPPRLPRPRPRPLHTPRP, the “shrunken log2 fold change” value is -0.128. To RRIRPRPPRLPRPRPRPCCDPRP belongs 0.249; to RRIRPRPPRLPRPRPRPANTPRP, -0.224; to RRIRWRPPRLPRPRPRPIQVPRP, -0.0332. The result for RRIRDRPPRLPRPRPRPRAFPRP reads -0.2; that for RRIRLRPPRLPRPRPRPRGDPRP, 0.553; that for RRIRNRPPRLPRPRPRPKCYPRP, -0.0478. The result for RRIRMRPPRLPRPRPRPWNAPRP reads -0.0284; that for RRIRMRPPRLPRPRPRPNAHPRP, 8.74e-05. With RRIRARPPRLPRPRPRPDFRPRP, the “shrunken log2 fold change” value was found to be 0.0149. On to RRIRNRPPRLPRPRPRPSHMPRP, for which the “shrunken log2 fold change” value was -0.883. With RRIRKRPPRLPRPRPRPWTIPRP, the “shrunken log2 fold change” value is 0.0185. The result for RRIRDRPPRLPRPRPRPIIIPRP reads -0.153; that for RRIRLRPPRLPRPRPRPALHPRP, 0.135.

In the case of RRIRWRPPRLPRPRPRPGLYPRP, the “shrunken log2 fold change” value is -0.036. The result for RRIRARPPRLPRPRPRPYCYPRP reads -0.227.

For the sequence RRIRARPPRLPRPRPRPVFSPRP, the “shrunken log2 fold change” value was -0.0817. In the case of RRIRGRPPRLPRPRPRPGCNPRP, the “shrunken log2 fold change” value was 0.773. To RRIRIRPPRLPRPRPRPRKLPRP belongs -0.529. To RRIRLRPPRLPRPRPRPSIYPRP belongs -0.801.

On to RRIRCRPPRLPRPRPRPSDMPRP, for which the “shrunken log2 fold change” value is -0.415. Regarding RRIRDRPPRLPRPRPRPHWVPRP, the “shrunken log2 fold change” value turned out to be 0.0635. To RRIRNRPPRLPRPRPRPVFTPRP belongs -0.349; to RRIRTRPPRLPRPRPRPETPPRP, 0.493. The result for RRIRVRPPRLPRPRPRPNSIPRP reads 0.0266; that for RRIRKRPPRLPRPRPRPVFAPRP, 2.02. RRIRLRPPRLPRPRPRPNYLPRP: the “shrunken log2 fold change” value was -0.377. To RRIRERPPRLPRPRPRPDLWPRP belongs -0.141; to RRIRHRPPRLPRPRPRPWDKPRP, -0.000233.

As for RRIRHRPPRLPRPRPRPNGQPRP, the “shrunken log2 fold change” value is 0.024.

With RRIRDRPPRLPRPRPRPCLCPRP, the “shrunken log2 fold change” value was found to be 0.0206. RRIRMRPPRLPRPRPRPQFDPRP: the “shrunken log2 fold change” value is -0.0694. To RRIRPRPPRLPRPRPRPCTMPRP belongs -0.191; to RRIRHRPPRLPRPRPRPVWKPRP, -0.00992; to RRIRFRPPRLPRPRPRPWMPPRP, -0.25. On to RRIRCRPPRLPRPRPRPFKVPRP, for which the “shrunken log2 fold change” value was -0.0177.

Consider RRIRGRPPRLPRPRPRPYENPRP, for which the “shrunken log2 fold change” value is -0.0711. As for RRIRVRPPRLPRPRPRPPSAPRP, the “shrunken log2 fold change” value was 0.47. To RRIRNRPPRLPRPRPRPTPCPRP belongs 0.043. To RRIRHRPPRLPRPRPRPRFRPRP belongs -0.105; to RRIRIRPPRLPRPRPRPDFYPRP, -0.554; to RRIRTRPPRLPRPRPRPFQPPRP, 0.0737. To RRIRFRPPRLPRPRPRPGYYPRP belongs -0.195; to RRIRYRPPRLPRPRPRPIKDPRP, -0.171; to RRIRFRPPRLPRPRPRPQNLPRP, -0.218. For the sequence RRIRDRPPRLPRPRPRPACAPRP, the “shrunken log2 fold change” value was 0.705.

Regarding RRIRKRPPRLPRPRPRPTDHPRP, the “shrunken log2 fold change” value was determined as 0.375. To RRIRLRPPRLPRPRPRPIQPPRP belongs 0.0112.

Regarding RRIRQRPPRLPRPRPRPMWMPRP, the “shrunken log2 fold change” value was 0.0583.

With RRIRWRPPRLPRPRPRPGQRPRP, the “shrunken log2 fold change” value was 0.153. To RRIRCRPPRLPRPRPRPWPDPRP belongs 0.0862; to RRIRARPPRLPRPRPRPCNKPRP, -0.43; to RRIRWRPPRLPRPRPRPIYDPRP, -0.227. The result for RRIRARPPRLPRPRPRPCMMPRP reads -0.0864; that for RRIRTRPPRLPRPRPRPKFKPRP, -0.225; that for RRIRRRPPRLPRPRPRPVKTPRP, 0.05.

For the sequence RRIRTRPPRLPRPRPRPIAGPRP, the “shrunken log2 fold change” value is -0.16.

Regarding RRIRGRPPRLPRPRPRPCYFPRP, the “shrunken log2 fold change” value is -0.0409. To RRIRYRPPRLPRPRPRPWSLPRP belongs 0.0143.

With RRIRIRPPRLPRPRPRPLGQPRP, the “shrunken log2 fold change” value is -0.00501. The result for RRIRSRPPRLPRPRPRPTHSPRP reads 0.186; that for RRIRWRPPRLPRPRPRPYINPRP, -0.536. To RRIRKRPPRLPRPRPRPPKFPRP belongs 0.514. To RRIRVRPPRLPRPRPRPFGMPRP belongs -0.0877. As for RRIRKRPPRLPRPRPRPHNQPRP, the “shrunken log2 fold change” value turned out to be 0.0277. The result for RRIRDRPPRLPRPRPRPILVPRP reads 0.0243. The result for RRIRVRPPRLPRPRPRPHREPRP reads -0.223; that for RRIRKRPPRLPRPRPRPLAEPRP, 1.11.

RRIRWRPPRLPRPRPRPHMHPRP: the “shrunken log2 fold change” value is -0.36. Consider RRIRGRPPRLPRPRPRPVMGPRP, for which the “shrunken log2 fold change” value stood at 0.289. RRIRKRPPRLPRPRPRPKVDPRP: the “shrunken log2 fold change” value turned out to be 0.00437. As to RRIRIRPPRLPRPRPRPGEYPRP, the “shrunken log2 fold change” value is -0.161. To RRIRKRPPRLPRPRPRPGGDPRP belongs 0.16. To RRIRPRPPRLPRPRPRPTWRPRP belongs 0.639; to RRIRMRPPRLPRPRPRPRAGPRP, 1.08; to RRIRTRPPRLPRPRPRPWMRPRP, 0.556. As to RRIRARPPRLPRPRPRPHNVPRP, the “shrunken log2 fold change” value is -0.0333. To RRIRTRPPRLPRPRPRPQDCPRP belongs 0.0249; to RRIRPRPPRLPRPRPRPNVKPRP, -0.475; to RRIRMRPPRLPRPRPRPARPPRP, 1.09. Regarding RRIRVRPPRLPRPRPRPQAPPRP, the “shrunken log2 fold change” value stood at 0.167.
